# Bridge positions count the residues as written; N and C are the ends. Peptide text beside a SMILES is read from it. * marks the point of attachment. DOTA = O=C(O)CN1CCN(CC(=O)O)CCN(CC(=O)*)CCN(CC(=O)O)CC1; AEEA = NCCOCCOCC(=O)O
# Columns and labels:
# VAP-1 [1] = molecular target: T1, VAP-1 (Mus musculus, UniProt O70423); set-up: species or system mouse (LDLR−/−ApoB100/100; C57BL/6N); details: in vivo
# T1 construct: VAP-1 was expressed on endothelial cells lining inflamed atherosclerotic lesions; from tissue; host or cells: living mice (LDLR-/-ApoB100/100, Jackson strain #003000; C57BL/6N controls); aorta, atherosclerotic plaque endothelium, adipocytes
# T1 sequence (O70423 1-765): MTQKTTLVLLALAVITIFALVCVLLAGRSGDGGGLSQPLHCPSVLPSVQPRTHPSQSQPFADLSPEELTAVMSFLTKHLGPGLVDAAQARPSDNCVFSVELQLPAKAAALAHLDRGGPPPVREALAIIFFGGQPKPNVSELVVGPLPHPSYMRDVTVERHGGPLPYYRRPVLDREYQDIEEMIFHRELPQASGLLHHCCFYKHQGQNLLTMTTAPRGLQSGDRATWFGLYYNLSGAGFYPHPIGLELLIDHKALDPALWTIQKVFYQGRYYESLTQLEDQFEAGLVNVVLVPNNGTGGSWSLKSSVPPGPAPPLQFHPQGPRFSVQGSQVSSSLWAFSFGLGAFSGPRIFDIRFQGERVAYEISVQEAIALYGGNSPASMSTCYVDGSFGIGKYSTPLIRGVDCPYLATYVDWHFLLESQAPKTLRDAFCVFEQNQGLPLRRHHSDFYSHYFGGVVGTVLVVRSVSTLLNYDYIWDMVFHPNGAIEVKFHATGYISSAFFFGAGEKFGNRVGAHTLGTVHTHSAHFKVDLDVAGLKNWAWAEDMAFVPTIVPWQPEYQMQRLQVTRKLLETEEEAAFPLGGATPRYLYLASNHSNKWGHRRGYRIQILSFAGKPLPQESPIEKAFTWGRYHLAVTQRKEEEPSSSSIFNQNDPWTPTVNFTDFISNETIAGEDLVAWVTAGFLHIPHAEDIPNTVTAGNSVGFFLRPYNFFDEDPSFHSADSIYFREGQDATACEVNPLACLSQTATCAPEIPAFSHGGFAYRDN
# Procedure: Mice (n = 5) then received an injection of [^68Ga]DOTA-Siglec-9 (22 ± 9 MBq) and were then subjected to subsequent ex vivo biodistribution and autoradiography analyses.
# The distribution of [^68Ga]DOTA-Siglec-9 in the aorta was examined in more detail using autoradiography, as described previously. Briefly, after gamma counting, excised aortas were frozen in isopentane, and sequential longitudinal cryosections (20 and 8 μm) were cut using a cryomicrotome at −15 °C. Sections were then thaw-mounted onto microscope slides. […]
# The 20 μm sections were stained with hematoxylin and eosin and scanned with a Pannoramic 250 Flash slide scanner (3DHISTECH Ltd.), and morphology was examined using Pannoramic Viewer 1.15 software (3DHISTECH Ltd.). After carefully superimposing the autoradiographs and hematoxylin-eosin staining images, the concentration of ^68Ga-radioactivity was measured in the following ROI: 1) plaques (excluding media); 2) normal vessel wall (no lesion formation); and 3) adventitia (mainly adipose tissue around the aorta). The results were expressed as count densities (photostimulated luminescence per square millimeter; PSL/mm^2) using Tina 2.1 software (Raytest Isotopemessgeräte GmbH, Straubenhardt, Germany). […] In total, […] (417 in plaques, 478 in normal vessel walls, and 347 in adventitia) were analyzed in 27 atherosclerotic and 20 control mice. […]
# VAP-1 [2] = test system: T2, VAP-1; assay: in vivo; set-up: species or system mouse (LDLR−/−ApoB100/100; C57BL/6N); details: total radioactivity
# T2 construct: VAP-1 was expressed on endothelial cells lining inflamed atherosclerotic lesions; from tissue; host or cells: living mice (LDLR-/-ApoB100/100, Jackson strain #003000; C57BL/6N controls); aorta, atherosclerotic plaque endothelium, adipocytes
# Procedure: (§1) Mice (LDLR^−/−ApoB^100/100, n = 22; C57BL/6N, n = 20) under isoflurane anesthesia were i.v. injected with [^68Ga]DOTA-Siglec-9 (19 ± 5 MBq). […] The thoracic aorta was excised and rinsed in saline to remove blood. Aorta, blood, heart, and femoral muscle were weighed, and radioactivity was measured in a gamma counter (Triathler 3″, Hidex, Turku, Finland). Hearts were preserved in formalin for further characterization of plaques in the aortic root. The ex vivo biodistribution results were expressed as a percentage of the injected radioactivity dose per gram of tissue (%IA/g). The radioactivity remaining in the tail was compensated for. […] Mice (n = 5) then received an injection of [^68Ga]DOTA-Siglec-9 (22 ± 9 MBq) and were then subjected to subsequent ex vivo biodistribution and autoradiography analyses.
# VAP-1 [3] = molecular target: T1, VAP-1; assay: in vivo; set-up: species or system mouse (LDLR−/−ApoB100/100; C57BL/6N); details: mouse
# Procedure: as §1
# [4] = test system: broad panel of receptors and enzymes, including monoamine oxidases A and B; details: cited from earlier work
# Source text: (§2) The adhesive function of VAP-1 can be inhibited by […]. Inhibiting VAP-1 reduces the migration of lymphocytes, granulocytes, and monocytes into inflamed tissues; it also reduces pathological angiogenesis in many animal models by abrogating monocyte/macrophage infiltration.
# VAP-1 [5] = details: mouse VAP-1; cited from earlier work
# Source text: as §2
# [6] = Body weight and plasma lipids after 4-week VAP-1 inhibitor treatment; assay type: in vivo, mouse (LDLR−/−ApoB100/100); details: mean ± SD
# Procedure: (§3) The second phase examined the role of VAP-1 in atherosclerotic plaques. Twenty-five LDLR^−/−ApoB^100/100 mice were treated with a VAP-1 inhibitor (LJP1586, Z-3-fluoro-2-(4-methoxybenzyl)allylamine hydrochloride; a kind gift from M. Linnik, La Jolla Pharmaceuticals, San Diego, CA, USA), or with saline. At the age of 2 months, mice were shifted to a high-fat diet for 2 months prior to the start of 4-week treatment, during which they were on normal chow. All mice were housed in an animal facility under standard conditions (12 h light/dark cycle) and allowed access to food and water ad libitum.
# During the 4 week treatment period, LDLR^−/−ApoB^100/100 mice received thrice-weekly intraperitoneal (i.p.) injections of a small molecular VAP-1 inhibitor, LJP1586 (Z-3-fluoro-2-(4-methoxybenzyl)allylamine hydrochloride; 0.5 mg/mL diluted in PBS; a kind gift from M. Linnik, La Jolla Pharmaceuticals, San Diego, CA, USA) at a dose of 5 mg/kg. Mice injected with the physiological saline alone (200 μL) served as negative controls. After treatment, all mice were sacrificed and the hearts were collected, formalin-fixed, and paraffin-embedded. Tissues were then cut transversely into 5 μm sections at the level of the coronary ostia. The areas of intima and media were outlined in sections stained with Movat’s pentachrome, and the intima-to-media ratio for each mouse was determined with ImageJ as described previously. Adjacent sections were stained with an anti-mouse Mac-3 antibody to detect activated macrophages in the intima as described above. […]
# Total cholesterol (CHOD-PAP 1489232 kit; Roche Diagnostics GmbH, Mannheim, Germany), choline-containing phospholipids (990–54009; Wako Chemicals GmbH, Neuss, Germany and/or Diagnostic Systems, Holzheim, Germany), and triglycerides (GPO-PAP 1488872 kit; Roche Diagnostics GmbH) were measured using fully enzymatic methods.
# VAP-1 [7] = molecular target: T1, VAP-1; assay: 4-week VAP-1 inhibitor treatment: plaque macrophages and intima-to-media ratio; assay type: in vivo, mouse (LDLR−/−ApoB100/100)
# Procedure: as §3
# During the 4 week treatment period, LDLR^−/−ApoB^100/100 mice received thrice-weekly intraperitoneal (i.p.) injections of a small molecular VAP-1 inhibitor, LJP1586 (Z-3-fluoro-2-(4-methoxybenzyl)allylamine hydrochloride; 0.5 mg/mL diluted in PBS; a kind gift from M. Linnik, La Jolla Pharmaceuticals, San Diego, CA, USA) at a dose of 5 mg/kg. Mice injected with the physiological saline alone (200 μL) served as negative controls. After treatment, all mice were sacrificed and the hearts were collected, formalin-fixed, and paraffin-embedded. Tissues were then cut transversely into 5 μm sections at the level of the coronary ostia. The areas of intima and media were outlined in sections stained with Movat’s pentachrome, and the intima-to-media ratio for each mouse was determined with ImageJ as described previously. Adjacent sections were stained with an anti-mouse Mac-3 antibody to detect activated macrophages in the intima as described above. Sections of aortic ostium were used to determine the area of plaque occupied by macrophages in each mouse because the ostium is easily located due to the presence of valves; it is therefore the most reliable place to compare plaque deposition in individual mice.
SMILES,Plaque-to-adventitia ratio (autoradiography) (VAP-1 [1]),Plaque-to-wall ratio (autoradiography) (VAP-1 [1]),"tissue uptake at 25 min (VAP-1 [2]; C57BL/6N, mouse, iv, uptake by the whole aorta)","tissue uptake at 25 min (VAP-1 [2]; LDLR−/−ApoB100/100, mouse, iv, radioactivity concentration in the blood)","tissue uptake at 25 min (VAP-1 [2]; LDLR−/−ApoB100/100, mouse, iv, uptake by the whole aorta)","tissue uptake at 25 min (VAP-1 [2]; LDLR−/−ApoB100/100, mouse, radioactivity concentration in the blood with competition)","tissue uptake at 25 min (VAP-1 [2]; LDLR−/−ApoB100/100, mouse, uptake by the whole aorta with competition)",aorta-to-blood ratio on prolonging the accumulation time-point to 90 min (VAP-1 [3]),aorta-to-muscle ratio (VAP-1 [3]),aorta-to-muscle ratio with competition (VAP-1 [3]),selectivity for VAP-1 [4],IC50 (VAP-1 [5]),"Body weight ([6]; LJP1586-treated LDLR−/−ApoB100/100 mice (n = 15), P = 0.065 vs saline)","Weight, female ([6]; LJP1586 group, female LDLR−/−ApoB100/100 mice (n = 8))","Weight, male ([6]; LJP1586 group, male LDLR−/−ApoB100/100 mice (n = 7))","reduction of Mac-3-positive macrophages in atherosclerotic plaques compared with the saline group (VAP-1 [7]; LJP1586 5 mg/kg i.p. thrice weekly for 4 weeks, P < 0.0001)","intima-media ratio (plaque size) (VAP-1 [7]; LJP1586 5 mg/kg i.p. thrice weekly for 4 weeks, n = 15, aortic ostium, mean ± SD (saline 1.5 ± 0.6; P = 0.15))","areal percentage of the aortic plaque occupied by Mac-3-positive macrophages (VAP-1 [7]; LJP1586 5 mg/kg i.p. thrice weekly for 4 weeks, n = 15, aortic ostium, mean ± SD (saline 15% ± 5.1%))","effect on plaque size, as determined by the intima-media ratio (VAP-1 [7]; LJP1586 for 4 weeks vs saline)"
"CC(C)C[C@@H]1NC(=O)CNC(=O)[C@H](CCCNC(=N)N)NC(=O)[C@H](Cc2c[nH]c3ccccc23)NC(=O)[C@H](CO)NC(=O)[C@H](CC(C)C)NC(=O)[C@H](CO)NC(=O)[C@H](CC(C)C)NC(=O)[C@H](CCCNC(=N)N)NC(=O)[C@H](C)NC(=O)[C@@H](NC(=O)COCCOCCNC(=O)CN2CCN(CC(=O)O)CCN(CC(=O)O)CCN(CC(=O)O)CC2)CSSC[C@@H](C(=O)N2CCC[C@H]2C(=O)N[C@@H](CO)C(=O)N[C@@H](CCCCN)C(=O)O)NC(=O)[C@H](CC(C)C)NC(=O)[C@H]([C@@H](C)O)NC1=O [[^68Ga]DOTA-Siglec-9, metal not drawn] ({DOTA-AEEA}-CARLSLSWRGLTLCPSK-OH; disulfide 1-14)",1.8 ± 0.35 P < 0.0001,2.1 ± 0.43 P < 0.0001,0.46 ± 0.1 %ID/g,3 ± 1.3 %ID/g,0.83 ± 0.33 %ID/g,2.6 ± 0.9 %ID/g,0.48 ± 0.066 %ID/g,did not improve,1.7 ± 0.59,1.1 ± 0.38,–,–,–,–,–,–,–,–,–
"COc1ccc(C/C(=C/F)CN)cc1.Cl [LJP1586, Z-3-fluoro-2-(4-methoxybenzyl)allylamine hydrochloride]",–,–,–,–,–,–,–,–,–,–,has been confirmed,4 nM,28 ± 4.5 g,25 ± 1.9 g,33 ± 1.7 g,46%,1.9 ± 0.8,8.2% ± 3.5%,no effect

# — paper PMC5059718, “Leukocyte trafficking-associated vascular adhesion protein 1 is expressed and functionally active in atherosclerotic plaques” (Scientific Reports, 2016)
